Measured values published in patent US20230111279A1 (Takeda / Millennium, published 2023).

T1: Clec12A-His protein, Clec12A (H65-A265-WT-EOm-NIgKss-6His) (human, UniProt Q5QGZ9 65-265)
T1 construct: The protein was biotinylated for the ELISA binning assay; also called soluble Clec12A-His; soluble Clec12A
T1 sequence: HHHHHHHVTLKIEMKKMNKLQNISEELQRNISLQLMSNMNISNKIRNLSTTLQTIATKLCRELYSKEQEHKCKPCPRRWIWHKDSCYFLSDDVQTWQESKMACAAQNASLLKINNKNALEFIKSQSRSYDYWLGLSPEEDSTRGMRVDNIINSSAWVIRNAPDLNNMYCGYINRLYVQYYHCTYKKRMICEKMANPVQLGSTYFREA

B1: anti-Clec12A antibody A (antibody, V domains shown)
VH: QVQLQESGPGLVKPSETLSLTCTVSGGSISTYYWSWIRQPPGKGLEWIGYIYYSGSTKYNPSLKSRVTISVDTSKNLFSLKLSSVTAADTAVYYCAREDYYGSGSPFDYWGQGTLVTVSS
VL: IQMTQSPSSLSASVGDRVTITCRASQGIRYDLGWYQQKPGKAPKLLIYAASSLQSGVPSRFSGSGSGTDFTLTISSLQPEDFATYYCLQDYNFPRTFGQGTKVEIK
notes: Described as a human anti-Clec12A antibody derived from and produced in hybridoma, captured on anti-mouse IgG sensor chips; also called Clone A
B2: anti-Clec12A antibody D (antibody, V domains shown)
VH: QLQLQESGPGLVKPSETLSLTCTVSGGSISSSTYYWGWIRQPPRKGLEWIGSTHYRGSTYYNPSLKSRVTISVDTSKNQFSLKVSSVTAADTAVYYCARELTGEVFDYWGQGTLVTVSS
VL: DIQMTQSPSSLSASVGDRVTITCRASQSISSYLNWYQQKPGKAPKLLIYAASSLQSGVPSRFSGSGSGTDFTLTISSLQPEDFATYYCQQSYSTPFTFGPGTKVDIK
notes: Hybridoma-produced IgG; also called Clone D; anti-Clec12A Clone D antibody
B3: anti-Clec12A antibody B (antibody, V domains shown)
VH: QVQLVESGGGVVQPGRSLRLSCAASGFTFSSYGMHWVRQAPGKGLEWVAVISYDGSDKYYVDSVKGRFTISRDNSKNTLYLHMNSLRAEDTAVYYCARDKGYYFDYWGQGTLVTVSS
VL: EIVMTQSPATLSLSPGERATLSCRASQSVGNRYLSWYQQKPGQAPRLLIYGASTRATGIPARFSGSGSGTDFTLTISSLQPEDFAVYYCQQDYNLPLTFGGGTKVEIK
notes: Hybridoma-produced IgG; also called Clone B
B4: anti-Clec12A antibody C (antibody, V domains shown)
VH: QVQLVESGGGVVQPGRSLRLSCAASGFTFSSYGMHWVRQAPGKGLEWVAVISYDGSDKYSADSVKGRFNISRDNSKNTLYLQMNSLRAEDTAVYYCARDGSRYFDYWGQGTLVTVSS
VL: EIFMTQSPATLSLSPGERATLSCRASQSVHSKYLSWYQQKPGQAPSLLIYGASTRATGIPARFSGSGSGTDFTLTISSLQPEDFAVYYCQQDYNLPITFGQGTRLEIK
notes: Hybridoma-produced IgG; also called Clone C

Columns and labels:
[1] = target: T1, Clec12A-His protein, Clec12A …; test: Biacore SPR; antibody captured on anti-mouse IgG chip, soluble Clec12A-His at 100 nM in solution; monovalent
Description: (§1) Briefly, […] anti-Clec12A antibodies derived from and produced in hybridoma were tested for their binding affinity on soluble Clec12A in a Biacore SPR system. Briefly, the antibodies were immobilized on anti-mouse IgG sensor chips and bound to soluble Clec12A-His protein (Clec12A extracellular domains fused to 6×His tag (SEQ ID NO: 79)) at 100 nM in the solution phase. The resulting Biacore traces are as shown in […]

[2] = target: T1, Clec12A-His protein, Clec12A …; test: Biacore SPR; antibody captured on anti-mouse IgG chip, soluble Clec12A-His at 100 nM in solution
Description: as §1

Binder	Kd [1] [nM]	koff [2] [s⁻¹]	kon [2] [M⁻¹ s⁻¹]
B1	2.87	0.0132	4.62e+06
B2	1.99		
B3	3.78	0.000666	176000
B4	< 0.0549	< 1e-05	182000
